Publication PMC6948969, “Regulation of gene expression by the action of a fungal lncRNA on a transactivator”

T1: Xyr1 (Xylanase regulator 1) (Trichoderma reesei, UniProt G0RLE8 1-920)
T1 sequence: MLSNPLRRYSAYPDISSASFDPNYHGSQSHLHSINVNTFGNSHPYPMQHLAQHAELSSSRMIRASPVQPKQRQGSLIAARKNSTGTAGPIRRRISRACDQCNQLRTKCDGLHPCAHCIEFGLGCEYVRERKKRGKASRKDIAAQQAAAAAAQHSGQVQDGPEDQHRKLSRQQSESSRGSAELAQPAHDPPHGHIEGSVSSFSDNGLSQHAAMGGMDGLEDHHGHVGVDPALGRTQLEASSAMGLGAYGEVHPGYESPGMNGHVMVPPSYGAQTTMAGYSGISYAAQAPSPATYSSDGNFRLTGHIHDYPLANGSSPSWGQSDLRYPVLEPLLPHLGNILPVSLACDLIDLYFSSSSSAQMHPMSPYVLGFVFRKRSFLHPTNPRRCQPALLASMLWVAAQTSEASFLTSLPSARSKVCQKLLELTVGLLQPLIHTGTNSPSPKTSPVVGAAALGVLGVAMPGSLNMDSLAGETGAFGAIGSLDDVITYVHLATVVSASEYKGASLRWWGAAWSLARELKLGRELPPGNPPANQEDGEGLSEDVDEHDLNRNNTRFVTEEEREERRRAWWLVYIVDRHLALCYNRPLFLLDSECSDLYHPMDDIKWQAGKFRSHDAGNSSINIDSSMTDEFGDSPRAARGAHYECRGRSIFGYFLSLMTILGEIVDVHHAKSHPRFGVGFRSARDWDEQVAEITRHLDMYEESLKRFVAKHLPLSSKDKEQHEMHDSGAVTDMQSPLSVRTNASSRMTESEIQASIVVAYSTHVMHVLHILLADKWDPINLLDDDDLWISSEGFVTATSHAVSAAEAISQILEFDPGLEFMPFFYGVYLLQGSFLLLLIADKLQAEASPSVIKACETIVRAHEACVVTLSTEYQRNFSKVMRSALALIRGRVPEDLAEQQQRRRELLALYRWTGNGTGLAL

B1: XRE probe (xyr1 promoter) (dsDNA)
DNA 1: CACTGGATACCTACCTAGGTAGTCTGCAGCAGAAG
DNA 2: CTTCTGCTGCAGACTACCTAGGTAGGTATCCAGTG
B2: XBS probe (xyn1 promoter) (dsDNA)
DNA 1: TTGGCAGGCTAAATGCGACATCTTAGCCGGATGCA
DNA 2: TGCATCCGGCTAAGATGTCGCATTTAGCCTGCCAA

Key:
[1] = target: T1, Xyr1 (Xylanase regulator 1); experiment: circular dichroism; 1.8 or 3.6 uM DNA, 0.5 uM Xyr1; larger loss of ellipticity at 222 nm than XBS; EMSA/RNA-EMSA: 10 mM Tricine, 50 mM NaCl, pH 7.4, 22 C, 10 min; gel 0.5x TBE, 4 C. CD: 50 mM Tris, 200 mM NaCl, 50 mM NaH2PO4, 10% glycerol, pH 7.5, 22 C; conditions: protein: recombinant; chain copies: 2; blunt
[2] = target: T1, Xyr1 (Xylanase regulator 1); experiment: circular dichroism; 1.8 or 3.6 uM DNA, 0.5 uM Xyr1; EMSA/RNA-EMSA: 10 mM Tricine, 50 mM NaCl, pH 7.4, 22 C, 10 min; gel 0.5x TBE, 4 C. CD: 50 mM Tris, 200 mM NaCl, 50 mM NaH2PO4, 10% glycerol, pH 7.5, 22 C; conditions: protein: recombinant; chain copies: 2; blunt

| Binder | binding result [1] | binding result [2] |
| --- | --- | --- |
| B1 | binds |  |
| B2 |  | binds |
